Measured values reported in publication PMC4357434.

B1: Caveolin-1-EGFP (natural protein)
chain: MSGGKYVDSEGHLYTVPIREQGNIYKPNNKAMAEEMSEKQVYDAHTKEIDLVNRDPKHLNDDVVKIDFEDVIAEPEGTHSFDGIWKASFTTFTVTKYWFYRLLSALFGIPMALIWGIYFAILSFLHIWAVVPCIKSFLIEIQCISRVYSIYVHTFCDPFFEAVGKIFSNIRINMQKET
B2: Caveolin-1-YFP (natural protein)
chain: MSGGKYVDSEGHLYTVPIREQGNIYKPNNKAMAEEMSEKQVYDAHTKEIDLVNRDPKHLNDDVVKIDFEDVIAEPEGTHSFDGIWKASFTTFTVTKYWFYRLLSALFGIPMALIWGIYFAILSFLHIWAVVPCIKSFLIEIQCISRVYSIYVHTFCDPFFEAVGKIFSNIRINMQKET

Tests used:
[1] = molecular target: RFP-tubulin (TagRFP-labeled α-tubulin) (UniProt P68363); assay: FRET or BRET; FRET-iMSD (spatiotemporal image correlation of the FRET signal), TIRF time series at 10 ms resolution, about 60 s, live co-transfected CHO cells, basal condition; characteristic time of binding τb from the fit of G(0,τ)
Sequence of UniProt P68363 (P68363 whole entry, the tested form may be a part): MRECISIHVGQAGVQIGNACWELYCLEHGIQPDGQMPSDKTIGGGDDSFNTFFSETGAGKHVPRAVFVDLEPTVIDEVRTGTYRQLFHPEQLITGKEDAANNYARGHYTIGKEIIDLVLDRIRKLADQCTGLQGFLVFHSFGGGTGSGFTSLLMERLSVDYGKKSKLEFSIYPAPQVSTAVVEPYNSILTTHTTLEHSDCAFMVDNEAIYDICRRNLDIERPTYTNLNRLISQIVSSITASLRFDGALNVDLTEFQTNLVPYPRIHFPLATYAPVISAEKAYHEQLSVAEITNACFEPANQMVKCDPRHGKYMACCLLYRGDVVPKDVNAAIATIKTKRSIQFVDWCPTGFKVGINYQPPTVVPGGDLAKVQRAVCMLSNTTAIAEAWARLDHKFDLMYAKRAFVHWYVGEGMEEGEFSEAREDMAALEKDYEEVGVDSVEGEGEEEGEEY

[2] = molecular target: TRPV1-RFP (Transient Receptor Potential Vanilloid 1 fused at its C-terminus to TagRFP) (UniProt O35433); assay: FRET or BRET; acceptor photobleaching FRET in TIRF mode on live co-transfected CHO cells; acceptor bleached at 561 nm; apparent FRET percentage E pb after Stepensky
Sequence of UniProt O35433 (O35433 whole entry, the tested form may be a part): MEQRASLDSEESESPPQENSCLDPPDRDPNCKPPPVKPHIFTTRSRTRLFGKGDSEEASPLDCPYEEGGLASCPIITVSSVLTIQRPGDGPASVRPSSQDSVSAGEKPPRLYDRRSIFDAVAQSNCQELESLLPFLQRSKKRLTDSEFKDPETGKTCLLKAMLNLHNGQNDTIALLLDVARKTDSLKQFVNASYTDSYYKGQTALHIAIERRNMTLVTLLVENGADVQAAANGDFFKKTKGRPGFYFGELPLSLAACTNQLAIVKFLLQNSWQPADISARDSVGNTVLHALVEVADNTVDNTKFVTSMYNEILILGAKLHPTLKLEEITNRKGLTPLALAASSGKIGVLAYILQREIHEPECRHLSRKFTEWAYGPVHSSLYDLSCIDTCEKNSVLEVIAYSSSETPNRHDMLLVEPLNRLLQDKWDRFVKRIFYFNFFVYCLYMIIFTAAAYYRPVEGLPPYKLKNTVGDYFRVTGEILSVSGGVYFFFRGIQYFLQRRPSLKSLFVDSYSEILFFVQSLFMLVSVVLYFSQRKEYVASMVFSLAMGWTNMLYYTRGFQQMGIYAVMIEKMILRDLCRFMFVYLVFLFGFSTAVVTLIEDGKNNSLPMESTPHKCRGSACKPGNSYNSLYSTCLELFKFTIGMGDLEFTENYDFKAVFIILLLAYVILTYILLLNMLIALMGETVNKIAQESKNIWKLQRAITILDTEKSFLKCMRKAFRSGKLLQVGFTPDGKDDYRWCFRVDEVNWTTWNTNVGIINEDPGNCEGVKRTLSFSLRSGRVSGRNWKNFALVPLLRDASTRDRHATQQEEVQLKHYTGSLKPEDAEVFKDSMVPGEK

[3] = molecular target: TRPV1-RFP (Transient Receptor Potential Vanilloid 1 fused at its C-terminus to TagRFP) (UniProt O35433); assay: FRET or BRET; FRET-iMSD (spatiotemporal image correlation of the FRET signal), TIRF time series at 10 ms resolution, about 60 s, live co-transfected CHO cells, basal condition; characteristic time of binding τb from the fit of G(0,τ)
[4] = molecular target: TRPV1-RFP (Transient Receptor Potential Vanilloid 1 fused at its C-terminus to TagRFP) (UniProt O35433); assay: FRET or BRET; sensitized emission FRET (SE-FRET) imaged in TIRF mode on the membrane of live CHO K1 cells co-transfected with donor- and acceptor-fused proteins; bleed-through corrected; donor-normalised apparent FRET efficiency E D; 37°C

Molecule	τb (characteristic time of binding) [1]	apparent FRET percentage E pb (acceptor photobleaching) [2]	τb (characteristic time of binding) [3]	apparent FRET efficiency E D [4]
TRPV1-EGFP (from UniProt O35433 1-838) (receptor)	> 60 s	–	–	–
B1	–	11%	16.4 s	4%
B2	–	–	–	30%
